Source: patent US20080219970

Test system: Ir-CPI (Ixodes ricinus Contact Phase Inhibitor), recombinant, without its peptide signal

Substance	activation of factor XII into factor XIIa by kallikrein, reconstituted system with purified factors, chromogenic substrate	amidolytic activity (chromogenic substrate S-2302), protease preincubated with Ir-CPI at 1:5 molar ratio	activation of factor XII into factor XIIa by factor XIa, reconstituted system with purified factors, chromogenic substrate	amidolytic activity (chromogenic substrate S-2366), protease preincubated with Ir-CPI at 1:5 molar ratio
kallikrein	Ir-CPI did not inhibit the activation of factor XII into factor XIIa by kallikrein	The results obtained did not show any effect of Ir-CPI protein on the amidolytic activity of these factors	–	–
factor XIa	–	–	Ir-CPI inhibits ... the activation of factor XII into factor XIIa by factor XIa	The results obtained did not show any effect of Ir-CPI protein on the amidolytic activity of these factors
